Two substances from US20220306748A1 can be followed below.

For assay [1], the target named is human leukocyte antigen-G (HLA-G) recombinant protein (human) (UniProt P17693). In words: SPR kinetics, HLA-G as immobilised ligand; comparator panel at the right. (In SPR one partner is held on a chip, and binding of the other changes the refractive index at the surface.)
Assay [2] concerns the target CD3ε (CD3 epsilon) recombinant protein (UniProt P07766). In words: SPR kinetics, CD3ε as immobilised ligand; comparator panel at the right.

In general, Kd refers to a measure of binding affinity in units of concentration. Take Anti-human HLA-G Antibody (87G): the Kd in assay [1] was determined as 8.69 nM. As for Muromonab-CD3 (antibody), the Kd in assay [2] turned out to be 7.68 nM.
